In the supplement of paper PMC9170038:

Tested on: K4 kissing-loop RNA reporter
Assay: apparent KD of K4 kissing-loop reporter; higher = weaker reporter binding
Conditions: Eterna round: R107; input ligand: arginine 13.2 mM
Protocol: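 RNA-MaP round R107: designed RNA switches with theophylline, tryptophan, arginine or FMN aptamers are transcribed on-chip within common flanks. They are titrated with a labelled K4 kissing-loop RNA reporter in RNA-MaP buffer (100 mM Tris pH 7.5, 80 mM KCl, 4 mM MgCl2), without ligand or with the indicated ligand. Median apparent KD per design.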
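Also: bound reporter read as fluorescence of individual clusters on recovered sequencing chips by microscopy, with normalized cluster intensities fitted with a binding model.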

“GGCAGUGAUGUUGCCAGUGGCAGAUUGGAAGGAGCGUGGUGAGACACAGGUAGGUCGCUAAUUGAAGUUGCUGUCACUAGAAUGC [whbob_Ex_Arginine_A_2t132]” and “ACUUGCACAAAGUCGUCAACCGGUGAAUCAAAGGAUAUUAAUUCACUAAGAAGGUUGAGCCGAGUGAUGUUCGACUGUAAGUCCC [theeternabot_exclusion_KL_FMN_A_34]” are within 1.5-fold of each other in “apparent KD of K4 kissing-loop reporter” value: 280 nM for the first, 382 nM for the second.

Going from “AAACGUUGGUCGGAUACCAGUUAGACCGAUAAGGUCAAAACUGGAGUGAUGUUCCCAAAUAACCCUUGGCAGCCGACCGACGAAA [MAT - Same State Theophlline B - Mod of Eli - D12]” to “GUAUCGCUAGGAGGAUAUUUCAAUCCGCCUAUAAUAGGUGGUACGGAGUGAUGUUCCGAUUUACGGAAAGAAGGCCUAGUGAUAC [FMN B 16]”, the “apparent KD of K4 kissing-loop reporter” value rises from 126 nM to 265 nM (2.1-fold).

Going from “AAACAACGUGACGAUACCAGCUUACUCGGCAAGCCAGUGAUGUUGGUGAAAAGGAGUCAAAGCCCUUGGCAGCGUCGAAGGUCUG [Georbeer]” to “GGCCGCAAGGCGGGCCGGCCCACUCCGGAAGGAGCGCCCGCAAGGGCAGGUAGGUCGCCGGAGUGAUGUUCCGGUGGCCGGCCCG [#2 Exclusion - Arginine A Attempt #2 (Inspired by Omei)]”, the “apparent KD of K4 kissing-loop reporter” value falls from 326 nM to 136 nM (2.4-fold).

“GCAGUGAUGUUGCGCGGGUACAGUGGAGUGCGAGGACCGGUACGGCCGCCACUCGUACAGAACUGGCUAAUAUAUGGAUAGGUGA [VII]” and “UCGGGCGGCUGAAGGAGCGGGCGGGCCCGAGUGAUGUUCGGGUGGGCCGUGAGGCCCGGAGCCCAGGUAGGUCGCGGUUCCGCCC [#2 Same State - Arginine B Attempt #23 (HarryS)]” are within 1.5-fold of each other in “apparent KD of K4 kissing-loop reporter” value: 169 nM for the first, 153 nM for the second.

Going from “GGUGCUGGCCAGUGAUGUUGGCGAAUACUGAAGGAUAUGAUAGGCGUCAGAAGGUCAAGAGUAAUAUCUAGAAUGAAUAGUGAUA [theeternabot_sameState_KL_FMN_A_38]” to “AUUCGCAGUGAUGUUGCGAUUCCGUUGAGGGAGGAUAUUGGUAAUACAAGAAGGCCCGGCUGCGGGUGAUGUUCGCAUUAGGGCC [Exclusion FMN A GF18]”, the “apparent KD of K4 kissing-loop reporter” value falls from 289 nM to 143 nM (2-fold).

“AAUAUAGUGAUGUUAUAUAAGAAGGAGUUACGAGGACCGGUACGGCCGCCACUCGAAACGAGUGAGGAUUUGGGAGAUUGGGUUU [SSTryptA.M]” and “GGUGUUGUUUGUGCCGUCUUCCUCGUUCCUCGAGGACCGGUACGGCCGCCACUCGAGUGAUGUUUGGGUAGCGAUCCCUGUUAGU [Bdazzled - #10 Exc. Tryptophan A]” are within 1.5-fold of each other in “apparent KD of K4 kissing-loop reporter” value: 443 nM for the first, 541 nM for the second.

“GGAUCGCAUGGCGAAAAGCCAUGCGAUCCACGAGGACCGGUACGGCCGCCACUCGCCGGAGUGAUGUUCCGCUACAGAUCUUAAA” and “AAUGUACAGGGAAGGAGCGUAGUCCAGUGAUGUUGGAAUUAAAUUCCUGUGAUGUUGGUUAUACAGGUAGGUCGCCCUAAAGUGC [KL-XARG-B21]” are within 1.5-fold of each other in “apparent KD of K4 kissing-loop reporter” value: 121 nM for the first, 92.2 nM for the second.

Going from “UGUGUGUAGGGAAGGAGCGCCGAGAGAAGAAGAAAAGAGUGAUGUUCAAGACAAUAAAGACGGCAGGUAGGUCGCCCUGUGUGUG [Default title]” to “GUAGCACUUGGUAGUGAUGUUACCAAGGACAAGGAUAUCAUCUCAAUGAGAAGGUGUCCUUGGUAACAGCUACGGGAAUAUCCCA [Omei KL FMN A Exc D v2]”, the “apparent KD of K4 kissing-loop reporter” value falls from 706 nM to 194 nM (3.6-fold).

Going from “AGACUACUGAUAGGAUAUAACAUCCUAGUCGUAUACCGAAAGGUAUACGAUAUCCUUCUAGUGAUGUUAGAAGGGUCGGUAGUCA [Omei KL FMN B Exc B v10]” to “UGAUGUUUAGUUCACCCAGUGAUGUUGGAAGGAGCGUGCGAAAGCACAGGUAGGUCGCCAACCUAAAAGUGUCUUGAUUAUCUAA [JR_Nu_ExcArginiA_Sub028]”, the “apparent KD of K4 kissing-loop reporter” value rises from 85.5 nM to 317 nM (3.7-fold).

Compared with “GAUGCAUAUUCCUGGAGGAAGAUGGUUAAGAAGGAUAUCAAAGCCGUGAGAAGGUCUAAACCUAAUAGUCGAGUGAUGUUCGACC [theeternabot_sameState_KL_FMN_A_35]”, “AUCUGGUUGGGCGAUACCAGUUUGGCAUAGUGAUGUUAUGCAACGCUCAGUGCAAGGCCAAACCCUUGGCAGCGCACAUCCUUUC [theeternabot_exclusion_KL_Theo_B_3]” is 3.1-fold lower in “apparent KD of K4 kissing-loop reporter” value: 309 nM for the first, 99.1 nM for the second.

“GGUGUUGUUUGUGCCGUUUUCCUCGUUCCUCGAGGACCGGUACGGCCGCCACUCGAGUGAUGUUUGGGUAGCGAUCCCUGUUAGU [Bdazzled - #9 Exc. Tryptophan A]” and “AGAUGUCCCUGGGAUACCAGUCGGAGUCUCAGAGCUCGGAGUGAUGUUCUGGGAUGUUUCGGCCCUUGGCAGCUCUGGGACUCCC [#2 Exclusion - Theophylline B Attempt #25 (HarryS)]” are within 1.5-fold of each other in “apparent KD of K4 kissing-loop reporter” value: 646 nM for the first, 722 nM for the second.

Going from “GCCGUACGCAUGGAUACCAGCAAUUAUGCUCGUAUCCUAGUGAUGUUAGUGGCGAAUAUUUGCCCUUGGCAGCCAUGCGUACGGC” to “ACUCUUGCGUAUGAUACCAGCUUGUACCGCCACAUAUAUUCUAAGAGUUGAGUGAUGUUUAGCCCUUGGCAGCAUACUUGUGCGU [theeternabot_exclusion_KL_Theo_B_42]”, the “apparent KD of K4 kissing-loop reporter” value falls from 841 nM to 546 nM (1.5-fold).

“UGACUGGACUGAAGGAGCGCUGAACUCCUAGUGAUGUUAGGAAAACGAGACAAAGUCUCGAAGCAGGUAGGUCGCAGUCUAGUCU” and “GGUAGCAUGGCGGCCGCCACUAUAAAGAAUCCAAAGGAUUCUAGGUAGUGAUGUUACCAUAGCUAUAGGACCGGGCCAUGCUACC” are within 1.5-fold of each other in “apparent KD of K4 kissing-loop reporter” value: 101 nM for the first, 120 nM for the second.

Compared with “AGUACGGCAAACUUGCAACAAGCCGUACCACGAGGACCGGUACGGCCGCCACUCGAUAACUUGCAGUGAUGUUGCAAGUAAGAAU [(T)''-(K)'-(T)'-(T1)-(T2)-(K1)-(K2)_Design5]”, “CCCUCACGAGUGAUGUUCGUAGGGUACAGUCAGGAUAUCAUGCGGUUGAGAAGGGACAGAGAAGGCGGCCACGGGUUGCUUAUCU [Ussoat]” is 1.8-fold higher in “apparent KD of K4 kissing-loop reporter” value: 140 nM for the first, 258 nM for the second.

First: UAACGACUCGGAAGGAGCGCGGUUUUAAAAGACUAAGGCCGAGUGAUGUUCGGAGAAGUCCCGCAGGUAGGUCGCCGGGUUGUGG [Ceororedar]
Second: AAGCAGUCUCUUGUAGUCAUCGAAGAUGAACGAGGACCGGUACGGCCGCCACUCGGAGUGAUGUUCCGAAGACUGCAAAAUAAAA [MatMod 17 - Jieux - Exclusion - Tryptophan A]
The “apparent KD of K4 kissing-loop reporter” value of the first is 3.1-fold lower: 138 nM for the first, 422 nM for the second.

Compared with “CGGCUCACGCAAGGAUAUCGCAGUGAGUACUCUGGAAGAAUAAAGCUAGUGAUGUUAGGUUAGAAGCGAGAAGGUGCGGCCGUAU [theeternabot_sameState_KL_FMN_B_30]”, “UGGAUAUAGUGAUGUUAUAUAGAGAUGGAUACCAGUUGAGAGAAUAGCCCUUGGCAGCCGAAAGAAGUAUCAUUAGAGAAGAAUG [ExTheophyl.Ak]” is 2.1-fold higher in “apparent KD of K4 kissing-loop reporter” value: 96.5 nM for the first, 200 nM for the second.

Same assay, conditions: Eterna round: R107; input ligand: none

Compared with “GGAACGUUGCGGACUAUCGCAUAAAGUCACCGAGGACCGGUACGGCCGCCACUCGCCAGUGAUGUUGGCGUGUUUGCGCGCUGUA [Isteri]”, “UGAGAGUACCGGAUGGAGAAAUUGUAUGAUACCAGAGCAGAUUACCUCCCUUGGCAGCAUGCAUCCUGCUAGUGAUGUUGGCAAC [theeternabot_sameState_KL_Theo_A_48]” is 7.3-fold higher in “apparent KD of K4 kissing-loop reporter” value: 101 nM for the first, 741 nM for the second.

Going from “UGAUACCAGACGGCCGCCACUCCUGCAGUCAAAGACUGCUAAGGAAUAUUCGUCCAGUGAUGUUGGAGGACCGGGUCUGGUAUCU [TrypBX 12 #SwitchBubble #Palindromic #StaticStem]” to “GUGACGCGGACGGCCGCCACUCCGGUGACCGCUCCGUGCCGCCCUGCGCGAGUGAUGUUCGCCAGGAGGACCGGGUCCGACUUUA [Soesente]”, the “apparent KD of K4 kissing-loop reporter” value falls from 1380 nM to 106 nM (13-fold).

Compared with “GGUGCGGGCUCGGCCGCCACUCCCUCCUGCCGUAAGGUGGGAUACCGAGUGAUGUUCGGUUGGAGGAGGACCGGGAGCCCGUGCC [#2 Exclusion - Tryptophan B Attempt #16 (HarryS)]”, “AGAGUCACAUAAGGAUAUCCCUUGACGGGAACCAAGUGAUGUUUGGUUAGACGACCUCUUAUCACGGGAGAAGGUAUAUUUGUAU [theeternabot_sameState_KL_FMN_B_27]” is 7.8-fold higher in “apparent KD of K4 kissing-loop reporter” value: 114 nM for the first, 889 nM for the second.

Going from “CGCAAGCAGCCAGUGAUGUUGGCUGCCUUGCGAGGACCGGUACGGCCGCCACUCGAAGGCAGCUACUGGUAAACCGUCUAACGGA [Atere]” to “AAAAUAAGCCAGUGAUGUUGGUAGCCAGAUACCAGCGACGAAAGUCGCCCUUGGCAGCUGUGGACGUACAAAAUAAGUACGUCCU”, the “apparent KD of K4 kissing-loop reporter” value rises from 111 nM to 928 nM (8.4-fold).

Going from “UGUACCGAGUCAGGAUAUGGCGUCGAAAGACGAAUCCUAGUGAUGUUAGGGAUCUGCGAAAGCAGUCCAGAAGGGACUUGGUACU [FmnBS 26 #SwitchBubble #StaticStem #DoubleMagnetSystem]” to “GUGCAGUGAUGUUGCACGAGGAAAGACGAUACCAGCCGUAAAUAAGGCCCUUGGCAGCGUAGGCUAGCAUAAAGUACGCUAGUCC [Enarines]”, the “apparent KD of K4 kissing-loop reporter” value falls from 357 nM to 109 nM (3.3-fold).

Going from “GGCAGUGAUGUUGCCAGUGGCAGAUUGGAAGGAGCGUGGUGAGACACAGGUAGGUCGCUAAUUGAAGUUGCUGUCACUAGAAUGC [whbob_Ex_Arginine_A_2t132]” to “ACUUGCACAAAGUCGUCAACCGGUGAAUCAAAGGAUAUUAAUUCACUAAGAAGGUUGAGCCGAGUGAUGUUCGACUGUAAGUCCC [theeternabot_exclusion_KL_FMN_A_34]”, the “apparent KD of K4 kissing-loop reporter” value rises from 293 nM to 551 nM (1.9-fold).

“AAACGUUGGUCGGAUACCAGUUAGACCGAUAAGGUCAAAACUGGAGUGAUGUUCCCAAAUAACCCUUGGCAGCCGACCGACGAAA [MAT - Same State Theophlline B - Mod of Eli - D12]” and “GUAUCGCUAGGAGGAUAUUUCAAUCCGCCUAUAAUAGGUGGUACGGAGUGAUGUUCCGAUUUACGGAAAGAAGGCCUAGUGAUAC [FMN B 16]” are within 1.5-fold of each other in “apparent KD of K4 kissing-loop reporter” value: 214 nM for the first, 297 nM for the second.

Going from “AAACAACGUGACGAUACCAGCUUACUCGGCAAGCCAGUGAUGUUGGUGAAAAGGAGUCAAAGCCCUUGGCAGCGUCGAAGGUCUG [Georbeer]” to “GGCCGCAAGGCGGGCCGGCCCACUCCGGAAGGAGCGCCCGCAAGGGCAGGUAGGUCGCCGGAGUGAUGUUCCGGUGGCCGGCCCG [#2 Exclusion - Arginine A Attempt #2 (Inspired by Omei)]”, the “apparent KD of K4 kissing-loop reporter” value falls from 427 nM to 133 nM (3.2-fold).

Compared with “GCAGUGAUGUUGCGCGGGUACAGUGGAGUGCGAGGACCGGUACGGCCGCCACUCGUACAGAACUGGCUAAUAUAUGGAUAGGUGA [VII]”, “UCGGGCGGCUGAAGGAGCGGGCGGGCCCGAGUGAUGUUCGGGUGGGCCGUGAGGCCCGGAGCCCAGGUAGGUCGCGGUUCCGCCC [#2 Same State - Arginine B Attempt #23 (HarryS)]” is 1.6-fold lower in “apparent KD of K4 kissing-loop reporter” value: 305 nM for the first, 188 nM for the second.

First: GGUGCUGGCCAGUGAUGUUGGCGAAUACUGAAGGAUAUGAUAGGCGUCAGAAGGUCAAGAGUAAUAUCUAGAAUGAAUAGUGAUA [theeternabot_sameState_KL_FMN_A_38]
Second: AUUCGCAGUGAUGUUGCGAUUCCGUUGAGGGAGGAUAUUGGUAAUACAAGAAGGCCCGGCUGCGGGUGAUGUUCGCAUUAGGGCC [Exclusion FMN A GF18]
The “apparent KD of K4 kissing-loop reporter” value of the first is 2.3-fold higher: 329 nM for the first, 146 nM for the second.

In the case of “AAUAUAGUGAUGUUAUAUAAGAAGGAGUUACGAGGACCGGUACGGCCGCCACUCGAAACGAGUGAGGAUUUGGGAGAUUGGGUUU [SSTryptA.M]”, the “apparent KD of K4 kissing-loop reporter” value is reported as 474 nM.
